Molecular target: human MN protein, entire extra-cellular domain with a C-terminal histag, expressed in HKB-11 cells (human), Q16790
Experiment: SPR (BIAcore 3000), IgG captured on anti-human IgG Fc, soluble MN as analyte, 1:1 Langmuir fit
Settings: remark: other sources report otherwise

- Kd: 1 nM
B1: 3a4 full-length human IgG1 antibody (antibody)
chain 1: QVELVESGGGLVQPGGSLRLSCAASGFTFSDYSINWVRQAPGKGLEYVSNISYSGSSTYYADSVKGRFTISRDNSKNTLYLQMNSLRAEDTAVYYCARFKYSGGSDSWGQGTLVTVSS
chain 2: DIELTQPPSVSVAPGQTARISCSGDNLPDFYVHWYQQKPGQAPVLVISEDNKRPSGIPERFSGSNSGNTATLTISGTQAEDEADYYCSTYGYTYSYSVFGGGTKLTVL

Source: US20100129315A1
